Test results published in paper PMC11306785.

Molecular target: FLAG-PPM1G-YLmut (human) (UniProt O15355)
Experiment: co-IP; anti-FLAG affinity gel (25 μl), 1-2 mg lysate of transiently transfected HEK293H cells, 1 h at 4°C, lysis buffer 50 mM HEPES-KOH pH 7.5, 50 mM KCl, 2 mM MgCl2, 2 mM EGTA, 5% glycerol, 0.5% NP40; partners detected by Western blot; in Figure 3B cells treated with DMSO or PP242 for 2 h

Sequence of UniProt O15355 (O15355 whole entry Y85A/L90A): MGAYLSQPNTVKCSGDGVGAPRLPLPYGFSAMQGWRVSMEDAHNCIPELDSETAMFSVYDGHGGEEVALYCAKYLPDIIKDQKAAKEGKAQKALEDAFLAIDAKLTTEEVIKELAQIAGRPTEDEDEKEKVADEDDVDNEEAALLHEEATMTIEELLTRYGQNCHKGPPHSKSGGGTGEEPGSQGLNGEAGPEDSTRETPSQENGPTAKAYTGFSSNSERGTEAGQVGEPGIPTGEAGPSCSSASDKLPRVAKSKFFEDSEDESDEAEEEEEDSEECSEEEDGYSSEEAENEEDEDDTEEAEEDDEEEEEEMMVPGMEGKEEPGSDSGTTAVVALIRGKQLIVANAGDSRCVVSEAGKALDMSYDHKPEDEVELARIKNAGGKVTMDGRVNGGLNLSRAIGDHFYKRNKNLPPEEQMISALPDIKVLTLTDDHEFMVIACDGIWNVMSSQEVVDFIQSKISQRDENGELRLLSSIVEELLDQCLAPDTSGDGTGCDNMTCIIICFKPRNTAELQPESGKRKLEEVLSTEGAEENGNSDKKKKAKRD

endogenous eIF4E (from UniProt P06730 1-217) (natural protein)
percent decrease of binding against wild-type PPM1G: 80%
